# Assay results published in patent US20240117018A1.
# Experiments:
# Assay in all cases: cell-based or functional assay
# [1] = molecular target: HIV-1 Env of pseudovirus 0815.v3.c3 (HIV-1)
# [2] = molecular target: HIV-1 Env of pseudovirus 231965.c01 (HIV-1)
# [3] = molecular target: HIV-1 Env of pseudovirus 231966.c02 (HIV-1)
# [4] = molecular target: HIV-1 Env of pseudovirus 235-47 (HIV-1)
# [5] = molecular target: HIV-1 Env of pseudovirus 3016.v5.c45 (HIV-1)
# [6] = molecular target: HIV-1 Env of pseudovirus 3103.v3.c10 (HIV-1)
# [7] = molecular target: HIV-1 Env of pseudovirus 3301.v1.c24 (HIV-1)
# [8] = molecular target: HIV-1 Env of pseudovirus 3817.v2.c59 (HIV-1)
# [9] = molecular target: HIV-1 Env of pseudovirus 6041.v3.c23 (HIV-1)
# [10] = molecular target: HIV-1 Env of pseudovirus 620345.c01 (HIV-1)
# [11] = molecular target: HIV-1 Env of pseudovirus 6480.v4.c25 (HIV-1)
# [12] = molecular target: HIV-1 Env of pseudovirus 6540.v4.c1 (HIV-1)
# [13] = molecular target: HIV-1 Env of pseudovirus 6545.v4.c1 (HIV-1)
# [14] = molecular target: HIV-1 Env of pseudovirus 6811.v7.c18 (HIV-1)
# [15] = molecular target: HIV-1 Env of pseudovirus 6952.v1.c20 (HIV-1)
# [16] = molecular target: HIV-1 Env of pseudovirus A07412M1.vrc12 (HIV-1)
# [17] = molecular target: HIV-1 Env of pseudovirus BJOX015000.11.5 (HIV-1)
# [18] = molecular target: HIV-1 Env of pseudovirus BJOX025000.01.1 (HIV-1)
# [19] = molecular target: HIV-1 Env of pseudovirus BJOX028000.10.3 (HIV-1)
# [20] = molecular target: HIV-1 Env of pseudovirus C1080.c03 (HIV-1)
# [21] = molecular target: HIV-1 Env of pseudovirus C3347.c11 (HIV-1)
# [22] = molecular target: HIV-1 Env of pseudovirus P0402_c2_11 (HIV-1)
# [23] = molecular target: HIV-1 Env of pseudovirus R1166.c01 (HIV-1)
# [24] = molecular target: HIV-1 Env of pseudovirus R2184.c04 (HIV-1)
# [25] = molecular target: HIV-1 Env of pseudovirus R3265.c06 (HIV-1)
# [26] = molecular target: HIV-1 Env of pseudovirus T251-18 (HIV-1)
# [27] = molecular target: HIV-1 Env of pseudovirus T278-50 (HIV-1)
# [28] = molecular target: HIV-1 Env of pseudovirus X1193_c1 (HIV-1)
# [29] = molecular target: HIV-1 Env of pseudovirus X1254_c3 (HIV-1)
# [30] = molecular target: HIV-1 Env of pseudovirus X1632_S2_B10 (HIV-1)
# [31] = molecular target: HIV-1 Env of pseudovirus X2088_c9 (HIV-1)
# [32] = molecular target: HIV-1 Env of pseudovirus X2131_C1_B5 (HIV-1)
substance,measurement,setting,value
PG16 (antibody),IC50 neutralization (TZM.bl),[1],> 50 µg/mL
same,IC80 neutralization (TZM.bl),[1],> 50 µg/mL
same,IC50 neutralization (TZM.bl),[2],1.44 µg/mL
same,IC80 neutralization (TZM.bl),[2],> 50 µg/mL
same,IC50 neutralization (TZM.bl),[3],0.007 µg/mL
same,IC80 neutralization (TZM.bl),[3],0.031 µg/mL
same,IC50 neutralization (TZM.bl),[4],0.092 µg/mL
same,IC80 neutralization (TZM.bl),[4],4.51 µg/mL
same,IC50 neutralization (TZM.bl),[5],> 50 µg/mL
same,IC80 neutralization (TZM.bl),[5],> 50 µg/mL
same,IC50 neutralization (TZM.bl),[6],25.4 µg/mL
same,IC80 neutralization (TZM.bl),[6],> 50 µg/mL
same,IC50 neutralization (TZM.bl),[7],0.02 µg/mL
same,IC80 neutralization (TZM.bl),[7],0.087 µg/mL
same,IC50 neutralization (TZM.bl),[8],0.008 µg/mL
same,IC80 neutralization (TZM.bl),[8],0.06 µg/mL
same,IC50 neutralization (TZM.bl),[9],0.048 µg/mL
same,IC80 neutralization (TZM.bl),[9],0.256 µg/mL
same,IC50 neutralization (TZM.bl),[10],> 50 µg/mL
same,IC80 neutralization (TZM.bl),[10],> 50 µg/mL
same,IC50 neutralization (TZM.bl),[11],> 50 µg/mL
same,IC80 neutralization (TZM.bl),[11],> 50 µg/mL
same,IC50 neutralization (TZM.bl),[12],0.035 µg/mL
same,IC80 neutralization (TZM.bl),[12],0.42 µg/mL
same,IC50 neutralization (TZM.bl),[13],0.044 µg/mL
same,IC80 neutralization (TZM.bl),[13],1.56 µg/mL
same,IC50 neutralization (TZM.bl),[14],> 50 µg/mL
same,IC80 neutralization (TZM.bl),[14],> 50 µg/mL
same,IC50 neutralization (TZM.bl),[15],21.9 µg/mL
same,IC80 neutralization (TZM.bl),[15],> 50 µg/mL
same,IC50 neutralization (TZM.bl),[16],0.343 µg/mL
same,IC80 neutralization (TZM.bl),[16],> 50 µg/mL
same,IC50 neutralization (TZM.bl),[17],3.13 µg/mL
same,IC80 neutralization (TZM.bl),[17],> 50 µg/mL
same,IC50 neutralization (TZM.bl),[18],0.071 µg/mL
same,IC80 neutralization (TZM.bl),[18],> 50 µg/mL
same,IC50 neutralization (TZM.bl),[19],> 50 µg/mL
same,IC80 neutralization (TZM.bl),[19],> 50 µg/mL
same,IC50 neutralization (TZM.bl),[20],0.001 µg/mL
same,IC80 neutralization (TZM.bl),[20],0.003 µg/mL
same,IC50 neutralization (TZM.bl),[21],0.008 µg/mL
same,IC80 neutralization (TZM.bl),[21],0.045 µg/mL
same,IC50 neutralization (TZM.bl),[22],0.025 µg/mL
same,IC80 neutralization (TZM.bl),[22],0.411 µg/mL
same,IC50 neutralization (TZM.bl),[23],0.28 µg/mL
same,IC80 neutralization (TZM.bl),[23],4.38 µg/mL
same,IC50 neutralization (TZM.bl),[24],0.67 µg/mL
same,IC80 neutralization (TZM.bl),[24],> 50 µg/mL
same,IC50 neutralization (TZM.bl),[25],0.016 µg/mL
same,IC80 neutralization (TZM.bl),[25],0.146 µg/mL
same,IC50 neutralization (TZM.bl),[26],1.72 µg/mL
same,IC80 neutralization (TZM.bl),[26],44.7 µg/mL
same,IC50 neutralization (TZM.bl),[27],0.227 µg/mL
same,IC80 neutralization (TZM.bl),[27],18.6 µg/mL
same,IC50 neutralization (TZM.bl),[28],0.018 µg/mL
same,IC80 neutralization (TZM.bl),[28],0.11 µg/mL
same,IC50 neutralization (TZM.bl),[29],0.023 µg/mL
same,IC80 neutralization (TZM.bl),[29],0.218 µg/mL
same,IC50 neutralization (TZM.bl),[30],0.012 µg/mL
same,IC80 neutralization (TZM.bl),[30],0.076 µg/mL
same,IC50 neutralization (TZM.bl),[31],> 50 µg/mL
same,IC80 neutralization (TZM.bl),[31],> 50 µg/mL
same,IC50 neutralization (TZM.bl),[32],0.024 µg/mL
same,IC80 neutralization (TZM.bl),[32],0.139 µg/mL
